Experiment: yeast display, Sf9 membrane polyspecificity reagent, FACS + sequencing; frameworks hold sequencing errors
Summary of the method: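 Nanobodies came from a synthetic yeast display library in Saccharomyces cerevisiae BJ5465, induced with galactose for 36–48 hours and stained for 1 hour at 4 °C with 10% biotinylated, detergent-solubilized Sf9 membrane reagent. Cells were enriched on streptavidin microbeads and then FACS-sorted, with low and high (top ~1%) gates set on anti-HA fluorescence for expression and streptavidin fluorescence for reagent binding. Each polyreactivity label reflects the gate a clone came from. Genes were amplified by colony PCR, sequenced by MiSeq 2 × 250 and filtered by CDR length.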

Row | Sequence | polyreactivity (PSR sort gate)
1 | QVQLVESGGGLVQAGGSLRLSCAASGIIFRSNAMGWYRQAPVKETELVAAITGRGTRTYFADSVKGRFTISRDYAKYRVYFQMNSLKPEDTAVYYCNKGQTRGMGYWGQGTQVTVSS | high polyreactivity
2 | QVQLVESGGGLVQAGGSLRLSCAASGHIFLGNVMGWYRQAPGKERELVAAISKRGGRTYYADSVKGRFTISRDNAKNTVYLQMNSLKPEDTAVYYCAAVIDSREEYWGQGTQVTVSS | high polyreactivity
3 | QVQLVESGGGLVQAGGSLRLSCAASGRIFRINAMGWYRQAPGKERELVASISRRGGNTYYADSVKGRFTISRDNAKNTVYLQMNSLKPEDTAVYYCAADTNQERTFDYWGQGTQVTVSS | low polyreactivity
4 | QVQLVESGGGLVQAGGSHRLSCAASGSTFFSYAMGWYRQAPGKERELVAAITSNGGTTHYADSVKGRFTISRDNAKNTVYLQMNSLKPEDTAVYYCAKAQGHVRGSRGLQGGRYDYWGQGTQVTVSS | low polyreactivity
5 | QVQLVESGGGLVQAAGSLRLSCAASGFTFWLYAMGWYRQAPGSEREMVAAIRRGGGTNYADSVKGRFTISRDNAKNTVYLQMNSLKPEDTAVYYCAAAVLSYRHAHAGYYYAKGDYWGQGTQVTVSS | high polyreactivity
6 | QVQLVESGRGLVQAGGSLRLSCAASGRTFDPYAMGWYRQAPGKERELVAAITSGDDTYYADSVKGRFTISRDYAKNTVYLQMNSLKPEHTAVYYCAADSFTPDYYYHDYWGQGTQVRVSS | low polyreactivity
7 | QVHLVESGGGLVQAGGSLRLSCASSGIIFKTYAMGWYRQAPGKERELVAAISSGGTTYYADSVKGRFTISRDNAKNTVYLQMNSLKPEDTAVYYCAARGYRSGGGYNYWGHGTQVTVSS | high polyreactivity
8 | QVQIVESGGGLVQAGGSLPLSCAASGFIYNYNAMGWYRQAPRKERELVAAISTSGSSTYYADSVKGRFTISRDTPKNTVYLQMNSLKPEVTAVYYCARYRVARGEGGWLYDYWGQGTQVTVSS | high polyreactivity
9 | QVQLVESGGGLVQAGGSLRLSCAASGLTFDYYVMGWYRQAPGKERELVATISWSGDITYYADSVKGRFTISRDNAKNTVYLQMNSLKPEDTAVYYSATDKSYSSWSAQYDYWGQGTQVTVSS | low polyreactivity
10 | QVQLVESGGGLVQAGGSLRLSCAASGFTFQYYTKGWYRQAPGKERELVAAISARGGSTYYADSVKGRFTISRDNAKNTVYLQMNSLKPEDTAVYYCNTVGIGAWGYSYPDEDNYWGQGTQVTVSS | low polyreactivity
11 | QVQLVESGGGLVQAGGSLRLSCAASGSTFWYYAMGWYRQAPGKEREMVATIRWRGGSTYYADSVKGRFTISRDNAKNTLYLQMNSLKPEDTAVYYCAADTWAYVGYYYGFDYWGQGTQVTVSS | high polyreactivity
12 | QVQLVESGGGLFQAGGSLRVSCAASGRIFFPYAMGWYRQAPGKERELVASIRGGGSTSYADSVKGRFTFSRDNAKNTVYLQMNSLKPEDTAVYYCAATPQAYWVLWSTYYTYYYWGQGTQVTVSS | high polyreactivity
13 | QDQLVESGGGLVQEGGSLRLSCAASGLIFTYYAMGWYRQAPGKERELVAAINYSGGSTYYADSVKGRFTISRDNAKNTVYLQMNSLKPEDTAVYYCDARRVTQTEGPMGYWGQGTQVTVSS | low polyreactivity
14 | QVQLVESGGGLVQAGGSLRLSCAASGRTFYYYAMGWYRQAPGKERELVATITKSSGSTSYADSVKGRFTISRDNAKNTVYLQMNSLKPEDSAVYSCARRIKWGKFKGWNYPAHNYWGQGTQVTVSS | high polyreactivity
15 | QVRLQESGGGLVQAGGSLRLSCAASGSISLTYYMDWSRQAPCTVREFVATITAGATTNYADSVKGRFTISRDNAKNTVYPQMNSLKPEDTEVYYSAVRAEHQVTLIYLGQGTQVTVSS | low polyreactivity
16 | QVQLVDSGGGLVQAGGSLRLSCAASGAIFDIYGMGWYRQAPGKERELVASISGGAGSTNYADSVKGRFTISRDNAKNTVYLQMNSLKPEDTAVYYCAAEVYVPDYFQHKFDVEYEYWGHGTQVTVSS | low polyreactivity
17 | QVQLVESGGALGQAGGRLRLTCAASGSTFSIYGMGWYRQAHGKEREFVAALRTSGGRTYADSVKGRFTISRDNAKNTVYLQLNSLKPDDPAVDYCAAHVNYIYDWGQGTQVTVSS | high polyreactivity
18 | QVQLVESGGGLVQAGGSLRLSCAASGSIRYYVMGWYRQAPGKERELVAGINWSGGSTYYADSVKGRFTISRDNAKNTVYLQMNSLKPEDTAVYYCAARFVGVRDGYYYWGQGTQVTVSS | high polyreactivity
19 | QVQLVESGGGLVQAGGSLRLSCAASGRIFQGYAMGWYRQAPGKERELVAAISVRGGSTFYADSVKGRFTISRDNAKNTVYLQMNSLKPEDTAVYYCATRTRYRGGYWGQGTQVTVSS | high polyreactivity
20 | QVQLVESGGGLFQAGGSLRLSCAASGSIFAWYAMGWYRQAPGKERELVAVITSGGSTNYADSVKGRFTISRDNEKNTVYLQMNSLKPEDTAVYYCAAGSYYSWYPFDYWGQGTQVTVSS | low polyreactivity
21 | QVQLVESGGGLVQAGGSLRLSCAASGSTIPTNAMGWYSQAPGKERELVAAITSTGSTYADSVKGRFTISRDNAKNTDYLQMNSLKPEDTAVYYCAADTQWTTPYDYWGQGTPVTVSS | low polyreactivity
22 | QVQLVESGGGLVQAGGTLRLSCAASGSTFRWYAMGWYRQAPGKERELVAAITSSGSTYYADSVKGRFTISRDNAKNTVYLQMNSLKPEDTAVYYCAARAKGYWNTYEHDSWGQGIQVTVSS | low polyreactivity

Row | Sequence | polyreactivity (PSR sort gate)
23 | QVQLVESVGGLVQAGGSLRLSCAASGRIFPVYAMGLYRQAPGKERELVAAISKRDGSTSYADSVKGRFTISRDNAKNTVYIQMNSLKPEDTAVYYCNARNHVQVLFRRDYWGQGTQVTVSS | low polyreactivity
24 | QGQLVESGGGLVQAGGNLRLSCAASGSIFSDYTMGWYRQAPGKERELVAVITLSAGSTYYADSVKGRFTISRDNAKNTVYLQMNSLKPEDTAVYYCAADGWYYFGSGVFEYDYWGHGTQVTVSS | low polyreactivity
25 | QVQLVESGGGLVQAGGSLRLSCAASGSTFYTYAMGWYRQAPGKERELVAAISNRGGSTRYADSVKGRFTISRDNAKNTVYLQMNSLKPEDTAVYYCAARVTQTGYYWGQGTQVTVSS | high polyreactivity
26 | QVQLVESGGGLVQAGGSLRLSCAASVYGMGWYRQAPGKERELVAAISNGGTTYYADSEKGRFTISRDNAKNTVYLQMNSLKPEDTAVYYCADRSWPGGFIYYYWGQGTQVTVSS | low polyreactivity
27 | QVKLQESGGGLVQAGGSLRLSCAASGNISVTGFMGLYRQAPGKERELVASIGIGGTTYYADSVKGRFSISRDNAKNTVYLQMNSLKPEDTAVYYCAGIYLYYAYSYWGQGTQVTVSS | low polyreactivity
28 | QVQLVESGGGLVQAGGSLRLSCAASGSIFWRYAMGWDRQAPGKERELVATITSRGGSTYYADSVKGRFTISRDNAKNTVYLQMNSLKPEDTAVYYCAATGLPGYYAYDYWGQGTQVTVSS | low polyreactivity
29 | QVQLVESGGGLVQAGGSLRLSCAASGLIFYIYAMGWYRQAPGKERELVAAITTGGRTNYADSVKGRFTISRDNAKNTVELQMNSLKPEDTAVYYCAKDFPIWISHGPDTDNDYWGQGTQVTVSS | low polyreactivity
30 | QFQLVESGGGLVQAGGSLRLICAASGIIFKLNAMGWYRQAPGIETELVAAITYRGGTTYYADSVKGRFTISRDNAKNTVYVQMNSLKPEDTAVYYCAVAVTSYSSKKLYYWGQGTQVTVSS | low polyreactivity
31 | QVQLVESGGGLVQAGGRLRLSSAASGLTFPYYAMGWYRQAPGKERELVAVITTSTGTTYYADSVKGRFTISRDNAKNTVYLQMNSLKPEVTAVYYCATDTGAYWYSLYDYWGQGTQVTVSS | low polyreactivity
32 | QVQLVESGGGLVQAGGSLRLSCAASGSTFGSNAMGWYRQAPGKEREWVAAISWTGGSTYYADSVKGRFTISRDKAKNPVYVHMNSLKPEETAVYYCNDYGYGYPLYRYDYWGQGTQVTVSS | low polyreactivity
33 | QVQHVESGGGLVQAGGSLRLSCAASGRIFHRNAMGWYRKAPGKERELVAAISYRSGSTYYADSVKGRFTISRDNEKYTVYLQMNSLKPEDTAVYYCAKVRHIRFHYYYGYQSYYYWGQGTQVTLSS | high polyreactivity
34 | QVQLVESGGGSVQAGGSLRLSCAASGRTFVRYAMGWYRQAPGKERELVAAITWSGGSTYYADSVKGRFTISRDNAKNTVYLQMNSLKPEDTAVFDCAAYPVQWGSLYDYWGQGTQVTVSS | high polyreactivity
35 | QVQLVESGGGLVQAGGSLRLSCAASGRIFSLYAMGWYRQAPGKERELVADITYRGGDSTYYADSVKGRFTISRDNAKNTVYLKMNSLKPEDTAVYYCAAGQPLYQRRHSSRTYYYWGQGTQVTVSS | high polyreactivity
36 | QVQLVESGGGLVQAGGSLRLSCAASGSIFRPYAMGWYRQAPGTERELVAAITWSGGRTYYADSVKGRFTISRDTAKNTVYLQMNSLKPDDTAVYYCAADDSEGFDYWGQGTQVTVSS | high polyreactivity
37 | QVQIVESGGGLVQAGGSLRLSCAASGSICTHNDMGWYRPSTWKERELVAAISTSGGRTYDADSVKGSFTISRDTAKNTVYLPMNSLKPEDTAVYYCNDRSVRSRYDYWGQGTQVTVSS | high polyreactivity
38 | QVQLVESGGGLVQAGGSLRLSCAASGSISVANAMGWYRQAPGKERELVAAITDSGDDTYYADSVKGRFTISRDNAKNTVYLQMNSLKPEDTAVYYCAVEAWSVPPYDYWGQGTQVTVSS | low polyreactivity
39 | QVQLVESAGGLVQAAGSLRLSCDASGFIFGTNAMGWYRQAPGKERELVAAINGRGGGTYYADSVKGRFTISRDNAKNTVYLQMNSLKPEDTAVYYCAASRFDYWGQGTQVTVSS | low polyreactivity
40 | QVQLVESGGGLVQAGGSLRFSCAASGFIFRYYAMGWYRQAPGKERELVAAIDYSGGSTIYADSVKGRFTISRDNAKNTVYLQMNSLKPEDTAVYYCNAEYTWHRGYDYWGQGTQVTVSS | low polyreactivity
41 | QVQLVESGGRLVQAGGSLRLSCAASGSIFRSYAMAWYRPAPGKERELVAGISYSGGSTYYADSVKGRFTISRDNAKNTVYLQMNSLKPEDTAVYYCNVDGGTYFFFVGAWGEYDYWGQGTQVTVSS | low polyreactivity
42 | QVQLVESGGGLVQAGGILRLTCAASGRTNTYNAMGSYRQAPGKERELVAAITWSGGSTYYADSVKGRFTISRDNAKNTVYLQMNSLKPEDTAVYYCAKEFYYSSGFDYWGQGTQVTVSS | low polyreactivity
43 | QVQLVESGGGLVQAGGSLRLSCAASGSIYPGNAMGWYRQAPGKERELVAVIDFSGASTYYADSVKGRFTISRDNAKNTVYLQMNSLKPEDTADYWGQGTQVTVSS | low polyreactivity

Source: the nanobody polyreactivity screen of Harvey et al. (2022)
